Test results: US11203773B2, “Designer ribosomes and methods of use thereof for incorporating non-standard amino acids into polypeptides” (Yale University, priority 2016, dated 2021)

Assays:
N[C@@H](CCC(=O)O)C(=O)O [1] = test: Aminoacylation of 32P-tRNA with α- and β3-amino acids; type: biochemical, E. coli; conditions: other: aminoacylation, GluRS
N[C@@H](CCC(=O)O)C(=O)O [2] = test: purified protein, by the assay type; conditions: other: adenylation, GluRS; pH 7.0; 25.0 °C
Experimental: Adenylation of α- and β-Amino Acids Catalyzed by E. coli PheRS, GlyRS, MetRS, and GluRS. […] Briefly, assay mixtures (50 μL) assembled at 25° C. contained the requisite α- or β^3-amino acid substrate (between 5 μM and 5 mM) in 100 mM HEPES (pH 7.0) containing 100 mM KCl, 15 mM MgCl2, 2 mM ATP, 0.5 mM NaPPi, and 50 μCi [^32P]-NaPPi). Reactions were initiated upon addition of enzyme (10 nM MetRS, 10 nM PheRS, or 50 nM GlyRS; 100 nM GluRS for reactions with α-Glu or 1.13 μM GluRS for reactions with β^3-Glu), incubated for various times (10 sec to 10 min), and halted by adding a 5 μL reaction aliquot to 100 μL quenching solution (10% charcoal, 0.5% HCl). 50 μL of 200 mM NaPPi in 1.5 N HCl was then added to each quenched reaction to decrease nonspecific binding of pyrophosphate to the charcoal. Each quenched reaction was then filtered through Whatman filter paper (number 3), previously washed with washing solution (200 mM NaPPi in 1 N HCl) using a 96-well BIO-DOT® apparatus (BioRad). Each well of the apparatus was then washed four times with 200 μL aliquots of washing solution (by pipetting washing solution up and down at least 10 times per wash) to minimize nonspecific binding of pyrophosphate to charcoal. Each experimental well was paired with an analogous control well (no-enzyme control) that lacked enzyme; a single membrane contained time points for both α- and β^3-amino acid substrates and all no-enzyme controls. The membrane was allowed to dry and was protected with a sheet of Microseal B adhesive seals (Biorad) prior to exposure to a BAS Storage Phosphor screen. Screens were imaged on a Typhoon 9500FLA biomolecule imager and the signal intensity of each dot was quantified using ImageJ to determine the relative amount of [^32P]-ATP formed as a function of time (Ctime). Each raw value were corrected by subtracting the intensity of the dot corresponding to the appropriate no-enzyme control (Cblank) and the resulting corrected values of Ccorr (representing the relative amounts of ^32P-ATP formed) were plotted as a function of time to determine values of relative ^32P-ATP formed per minute. Those values were divided by the concentration of enzyme used, and the data was plotted as relative specific activity (^32P-ATP formed min^−1×μM^−1 enzyme) and fitted using Prism by performing nonlinear regression using the least squares method and Equation 1 to obtain RSA (relative specific activity) and KM values (Equation 1 and Table 2).
In Equation 1, v is the apparent relative specific activity (relative ^32P-ATP formed per minute) obtained at each substrate concentration divided by the enzyme concentration, RSA is the relative specific activity, S is the concentration of substrate, and KM is the Michaelis-Menten constant.

Substance: E. coli GluRS (Escherichia coli K-12)
- Km (N[C@@H](CCC(=O)O)C(=O)O [1]): 277.1 ± 101.5 µM
- kcat (N[C@@H](CCC(=O)O)C(=O)O [1]): 0.000767 ± 6.67e-05 s⁻¹
- kcat/Km (N[C@@H](CCC(=O)O)C(=O)O [1]): 2.67 ± 1 M⁻¹ s⁻¹
- Km (N[C@@H](CCC(=O)O)C(=O)O [2]): 76.4 ± 43.0 µM
- kcat (N[C@@H](CCC(=O)O)C(=O)O [2]): 22.5 ± 3.43 s⁻¹
- kcat/Km (N[C@@H](CCC(=O)O)C(=O)O [2]): 293000 ± 172000 M⁻¹ s⁻¹
